The values that follow come from paper doi:10.1101/2025.03.17.643633 (bioRxiv, 2025).

A word on the Kd: it is the constant that tells how readily two partners part at equilibrium. A low value points to a tighter complex.

In this assay the target is T1, TIE1 ectodomain, aa 21-760 (human, UniProt P35590-1 21-760).
T1 sequence: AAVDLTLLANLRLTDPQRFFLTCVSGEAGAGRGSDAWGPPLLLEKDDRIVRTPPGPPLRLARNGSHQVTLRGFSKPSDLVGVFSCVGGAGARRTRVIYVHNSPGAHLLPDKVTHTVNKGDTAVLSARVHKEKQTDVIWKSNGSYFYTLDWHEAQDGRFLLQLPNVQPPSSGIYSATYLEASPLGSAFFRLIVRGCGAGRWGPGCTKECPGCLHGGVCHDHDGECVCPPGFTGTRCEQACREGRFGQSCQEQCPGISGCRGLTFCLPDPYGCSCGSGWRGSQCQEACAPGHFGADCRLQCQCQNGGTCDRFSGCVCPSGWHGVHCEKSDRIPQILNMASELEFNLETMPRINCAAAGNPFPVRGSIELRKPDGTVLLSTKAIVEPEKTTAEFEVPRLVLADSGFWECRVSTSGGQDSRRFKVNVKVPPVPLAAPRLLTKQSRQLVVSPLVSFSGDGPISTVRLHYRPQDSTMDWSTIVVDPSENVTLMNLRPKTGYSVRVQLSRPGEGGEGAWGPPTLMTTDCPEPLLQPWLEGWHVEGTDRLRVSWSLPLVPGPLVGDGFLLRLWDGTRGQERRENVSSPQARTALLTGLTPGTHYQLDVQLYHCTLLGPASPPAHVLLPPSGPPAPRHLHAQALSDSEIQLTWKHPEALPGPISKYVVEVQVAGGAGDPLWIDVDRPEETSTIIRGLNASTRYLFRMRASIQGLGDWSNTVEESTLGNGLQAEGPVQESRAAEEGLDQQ
The experiment in a line: SPR. Background: Surface plasmon resonance follows binding to a sensor surface in real time, without labels.

B1: Human SVEP1-Strep II recombinant protein, CCP15 to CCP24, aa 2261-2890 (70 kDa version) (domain or fragment)
chain: PLDCGKPPPIQNGFMKGENFEVGSKVQFFCNEGYELVGDSSWTCQKSGKWNKKSNPKCMPAKCPEPPLLENQLVLKELTTEVGVVTFSCKEGHVLQGPSVLKCLPSQQWNDSFPVCKIVLCTPPPLISFGVPIPSSALHFGSTVKYSCVGGFFLRGNSTTLCQPDGTWSSPLPECVPVECPQPEEIPNGIIDVQGLAYLSTALYTCKPGFELVGNTTTLCGENGHWLGGKPTCKAIECLKPKEILNGKFSYTDLHYGQTVTYSCNRGFRLEGPSALTCLETGDWDVDAPSCNAIHCDSPQPIENGFVEGADYSYGAIIIYSCFPGFQVAGHAMQTCEESGWSSSIPTCMPIDCGLPPHIDFGDCTKLKDDQGYFEQEDDMMEVPYVTPHPPYHLGAVAKTWENTKESPATHSSNFLYGTMVSYTCNPGYELLGNPVLICQEDGTWNGSAPSCISIECDLPTAPENGFLRFTETSMGSAVQYSCKPGHILAGSDLRLCLENRKWSGASPRCEAISCKKPNPVMNGSIKGSNYTYLSTLYYECDPGYVLNGTERRTCQDDKNWDEDEPICIPVDCSSPPVSANGQVRGDEYTFQKEIEYTCNEGFLLEGARSRVCLANGSWSGATPDCVPVR
In the case of B1, binding was put at a Kd of 62.5 nM.
